T1: human CEA (Carcinoembryonic antigen) on cells (human, UniProt P06731 35-685)
T1 sequence (looked up): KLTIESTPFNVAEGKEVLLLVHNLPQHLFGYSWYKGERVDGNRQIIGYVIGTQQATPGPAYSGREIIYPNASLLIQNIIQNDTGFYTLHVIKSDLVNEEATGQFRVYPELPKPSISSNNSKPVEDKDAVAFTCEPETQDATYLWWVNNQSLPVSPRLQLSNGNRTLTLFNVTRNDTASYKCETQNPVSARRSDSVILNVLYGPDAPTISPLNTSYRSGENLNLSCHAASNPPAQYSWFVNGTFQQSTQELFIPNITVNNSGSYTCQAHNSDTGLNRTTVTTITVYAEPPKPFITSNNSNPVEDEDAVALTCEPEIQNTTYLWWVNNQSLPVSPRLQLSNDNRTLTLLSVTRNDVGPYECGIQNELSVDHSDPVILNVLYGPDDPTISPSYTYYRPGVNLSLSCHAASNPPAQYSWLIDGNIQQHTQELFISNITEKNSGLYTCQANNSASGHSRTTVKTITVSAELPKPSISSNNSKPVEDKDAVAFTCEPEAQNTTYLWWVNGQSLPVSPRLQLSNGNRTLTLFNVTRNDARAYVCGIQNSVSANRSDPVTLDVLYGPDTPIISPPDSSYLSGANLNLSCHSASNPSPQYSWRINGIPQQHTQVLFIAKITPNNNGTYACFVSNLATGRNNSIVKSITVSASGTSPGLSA


Key:
Assay in all cases: cell-based or functional assay
[1] = target: T1, human CEA (Carcinoembryonic antigen) on …
[2] = target: T2, human MCSP (Melanoma-associated Chondroitin Sulfate Proteoglycan) on cells (human, UniProt Q6UVK1 30-2322)
T2 sequence (Q6UVK1 30-2322): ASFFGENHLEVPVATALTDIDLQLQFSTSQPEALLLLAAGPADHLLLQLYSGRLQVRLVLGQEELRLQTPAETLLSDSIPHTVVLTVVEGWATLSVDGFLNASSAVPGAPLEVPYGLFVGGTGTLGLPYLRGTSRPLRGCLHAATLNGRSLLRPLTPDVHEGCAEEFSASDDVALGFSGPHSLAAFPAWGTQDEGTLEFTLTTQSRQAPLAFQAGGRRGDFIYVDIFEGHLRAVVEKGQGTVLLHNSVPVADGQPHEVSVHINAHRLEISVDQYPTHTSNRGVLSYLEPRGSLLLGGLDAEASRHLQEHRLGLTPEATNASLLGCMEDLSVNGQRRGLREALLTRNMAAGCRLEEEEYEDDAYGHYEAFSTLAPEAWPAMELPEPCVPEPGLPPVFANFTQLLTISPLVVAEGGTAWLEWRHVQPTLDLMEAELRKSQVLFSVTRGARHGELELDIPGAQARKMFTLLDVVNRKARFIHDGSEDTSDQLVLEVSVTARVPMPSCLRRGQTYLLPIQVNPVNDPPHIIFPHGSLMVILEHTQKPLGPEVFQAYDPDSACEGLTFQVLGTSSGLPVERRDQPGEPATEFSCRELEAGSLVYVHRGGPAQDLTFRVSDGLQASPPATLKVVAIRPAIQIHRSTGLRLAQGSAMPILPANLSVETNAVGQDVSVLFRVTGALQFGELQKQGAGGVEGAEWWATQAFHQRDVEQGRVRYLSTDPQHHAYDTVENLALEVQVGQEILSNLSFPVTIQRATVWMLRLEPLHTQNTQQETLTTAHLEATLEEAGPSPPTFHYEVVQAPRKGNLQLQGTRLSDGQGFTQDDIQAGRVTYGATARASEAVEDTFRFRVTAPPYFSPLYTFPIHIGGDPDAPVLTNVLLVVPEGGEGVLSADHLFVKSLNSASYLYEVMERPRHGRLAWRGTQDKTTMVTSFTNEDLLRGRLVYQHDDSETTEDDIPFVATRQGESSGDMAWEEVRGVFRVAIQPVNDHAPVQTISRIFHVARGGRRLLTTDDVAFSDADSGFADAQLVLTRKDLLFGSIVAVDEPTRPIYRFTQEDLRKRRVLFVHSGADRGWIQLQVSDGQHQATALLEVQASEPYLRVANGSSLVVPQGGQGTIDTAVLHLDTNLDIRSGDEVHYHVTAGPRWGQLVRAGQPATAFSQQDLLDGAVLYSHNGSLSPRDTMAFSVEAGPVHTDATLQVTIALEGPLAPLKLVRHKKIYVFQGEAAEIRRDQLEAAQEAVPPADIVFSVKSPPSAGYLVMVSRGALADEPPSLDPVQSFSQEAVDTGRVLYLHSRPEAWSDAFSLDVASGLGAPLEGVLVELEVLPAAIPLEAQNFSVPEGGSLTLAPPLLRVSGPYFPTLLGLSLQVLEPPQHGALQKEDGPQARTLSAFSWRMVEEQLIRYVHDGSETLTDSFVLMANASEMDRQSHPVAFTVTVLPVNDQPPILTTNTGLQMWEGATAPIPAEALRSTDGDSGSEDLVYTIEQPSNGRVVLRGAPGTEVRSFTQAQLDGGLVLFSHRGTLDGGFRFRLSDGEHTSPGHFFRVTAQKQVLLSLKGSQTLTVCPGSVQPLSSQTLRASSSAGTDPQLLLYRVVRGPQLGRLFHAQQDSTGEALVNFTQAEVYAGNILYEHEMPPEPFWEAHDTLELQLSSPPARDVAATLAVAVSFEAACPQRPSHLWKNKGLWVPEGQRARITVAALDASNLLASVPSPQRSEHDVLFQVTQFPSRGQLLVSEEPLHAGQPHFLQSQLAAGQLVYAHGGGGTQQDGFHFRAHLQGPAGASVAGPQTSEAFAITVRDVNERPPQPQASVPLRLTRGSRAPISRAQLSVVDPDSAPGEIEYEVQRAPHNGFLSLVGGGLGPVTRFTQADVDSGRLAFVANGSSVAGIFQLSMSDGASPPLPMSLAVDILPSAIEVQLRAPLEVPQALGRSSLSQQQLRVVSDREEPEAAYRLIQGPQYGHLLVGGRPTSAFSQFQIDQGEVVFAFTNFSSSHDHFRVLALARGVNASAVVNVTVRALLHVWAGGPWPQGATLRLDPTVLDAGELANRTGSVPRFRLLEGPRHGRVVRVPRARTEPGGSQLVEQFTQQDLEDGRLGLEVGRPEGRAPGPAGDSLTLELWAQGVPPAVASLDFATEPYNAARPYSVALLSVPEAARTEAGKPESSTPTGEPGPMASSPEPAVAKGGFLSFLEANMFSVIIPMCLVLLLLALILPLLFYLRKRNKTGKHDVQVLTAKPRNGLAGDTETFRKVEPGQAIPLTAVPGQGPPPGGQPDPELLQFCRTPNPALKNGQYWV

[3] = target: T2, human MCSP (Melanoma-associated …); remark: listed apart in the source

Row | Binder | EC50 of T cell-mediated killing (LDH release) of LS-174T cells, human PBMCs, 28 h [1] | EC50 of T cell-mediated killing (LDH release) of MKN-45 cells, human PBMCs, 28 h [1] | EC50 of T cell-mediated killing (LDH release) of MC38-huCEA cells, human PBMCs, 24 h [1] | EC50 [pM] of T cell-mediated killing (LDH release) of MV-3 cells, human PBMCs, about 24 h [2] | EC50 [pM] of T cell-mediated killing (LDH release) of WM266-4 cells, human PBMCs, about 24 h [2] | EC50 of T cell-mediated killing (LDH release) of MV-3 cells, human PBMCs, 21 h [3] | EC50 of T cell-mediated killing (LDH release) of WM266-4 cells, human PBMCs, 21 h [3]
1 | 2+1 IgG Crossfab, inverted; CL/CH1 exchange (CH1A1A/V9), anti-CEA/anti-huCD3 (bispecific antibody) chain 1: QVQLVQSGAEVKKPGASVKVSCKASGYTFTEFGMNWVRQAPGQGLEWMGWINTKTGEATYVEEFKGRVTFTTDTSTSTAYMELRSLRSDDTAVYYCARWDFAYYVEAMDYWGQGTTVTVSSASTKGPSVFPLAPSSKSTSGGTAALGCLVKDYFPEPVTVSWNSGALTSGVHTFPAVLQSSGLYSLSSVVTVPSSSLGTQTYICNVNHKPSNTKVDKKVEPKSCDKTHTCPPCPAPEAAGGPSVFLFPPKPKDTLMISRTPEVTCVVVDVSHEDPEVKFNWYVDGVEVHNAKTKPREEQYNSTYRVVSVLTVLHQDWLNGKEYKCKVSNKALGAPIEKTISKAKGQPREPQVCTLPPSRDELTKNQVSLSCAVKGFYPSDIAVEWESNGQPENNYKTTPPVLDSDGSFFLVSKLTVDKSRWQQGNVFSCSVMHEALHNHYTQKSLSLSPGK chain 2: DIQMTQSPSSLSASVGDRVTITCKASAAVGTYVAWYQQKPGKAPKLLIYSASYRKRGVPSRFSGSGSGTDFTLTISSLQPEDFATYYCHQYYTYPLFTFGQGTKLEIKRTVAAPSVFIFPPSDEQLKSGTASVVCLLNNFYPREAKVQWKVDNALQSGNSQESVTEQDSKDSTYSLSSTLTLSKADYEKHKVYACEVTHQGLSSPVTKSFNRGEC chain 3: DIQMTQSPSSLSASVGDRVTITCRASQDIRNYLNWYQQKPGKAPKLLIYYTSRLESGVPSRFSGSGSGTDYTLTISSLQPEDFATYYCQQGNTLPWTFGQGTKVEIKSSASTKGPSVFPLAPSSKSTSGGTAALGCLVKDYFPEPVTVSWNSGALTSGVHTFPAVLQSSGLYSLSSVVTVPSSSLGTQTYICNVNHKPSNTKVDKKVEPKSC chain 4: not shown | 0.673 nM | 0.115 nM |  |  |  |  | 
2 | 1+1 IgG-Crossfab light chain fusion (CH1A1A/V9), anti-CEA/anti-huCD3 (bispecific antibody) chain 1: DIQMTQSPSSLSASVGDRVTITCRASQDIRNYLNWYQQKPGKAPKLLIYYTSRLESGVPSRFSGSGSGTDYTLTISSLQPEDFATYYCQQGNTLPWTFGQGTKVEIKSSASTKGPSVFPLAPSSKSTSGGTAALGCLVKDYFPEPVTVSWNSGALTSGVHTFPAVLQSSGLYSLSSVVTVPSSSLGTQTYICNVNHKPSNTKVDKKVEPKSC chain 2: DIQMTQSPSSLSASVGDRVTITCKASAAVGTYVAWYQQKPGKAPKLLIYSASYRKRGVPSRFSGSGSGTDFTLTISSLQPEDFATYYCHQYYTYPLFTFGQGTKLEIKRTVAAPSVFIFPPSDEQLKSGTASVVCLLNNFYPREAKVQWKVDNALQSGNSQESVTEQDSKDSTYSLSSTLTLSKADYEKHKVYACEVTHQGLSSPVTKSFNRGECGGGGSGGGGSGGGGSGGGGSEVQLVESGGGLVQPGGSLRLSCAASGYSFTGYTMNWVRQAPGKGLEWVALINPYKGVSTYNQKFKDRFTISVDKSKNTAYLQMNSLRAEDTAVYYCARSGYYGDSDWYFDVWGQGTLVTVSSASVAAPSVFIFPPSDEQLKSGTASVVCLLNNFYPREAKVQWKVDNALQSGNSQESVTEQDSKDSTYSLSSTLTLSKADYEKHKVYACEVTHQGLSSPVTKSFNRGEC chain 3: not shown chain 4: DKTHTCPPCPAPEAAGGPSVFLFPPKPKDTLMISRTPEVTCVVVDVSHEDPEVKFNWYVDGVEVHNAKTKPREEQYNSTYRVVSVLTVLHQDWLNGKEYKCKVSNKALGAPIEKTISKAKGQPREPQVCTLPPSRDELTKNQVSLSCAVKGFYPSDIAVEWESNGQPENNYKTTPPVLDSDGSFFLVSKLTVDKSRWQQGNVFSCSVMHEALHNHYTQKSLSLSPGK | 1.56 nM | 0.213 nM | ~3.2 nM |  |  |  | 
3 | 2+1 IgG Crossfab; VH/VL exchange (LC007/V9), anti-MCSP/anti-huCD3 (bispecific antibody) chain 1: not shown chain 2: DIVLTQSPSSLSASLGDRVTISCSASQGIRNYLNWYQQRPDGTVKLLIYYTSSLHSGVPSRFSGSGSGTDYSLTISNLEPEDIATYYCQQYSKLPWTFGGGTKLEIKRTVAAPSVFIFPPSDEQLKSGTASVVCLLNNFYPREAKVQWKVDNALQSGNSQESVTEQDSKDSTYSLSSTLTLSKADYEKHKVYACEVTHQGLSSPVTKSFNRGEC chain 3: DIQMTQSPSSLSASVGDRVTITCRASQDIRNYLNWYQQKPGKAPKLLIYYTSRLESGVPSRFSGSGSGTDYTLTISSLQPEDFATYYCQQGNTLPWTFGQGTKVEIKSSASTKGPSVFPLAPSSKSTSGGTAALGCLVKDYFPEPVTVSWNSGALTSGVHTFPAVLQSSGLYSLSSVVTVPSSSLGTQTYICNVNHKPSNTKVDKKVEPKSCGGGGSGGGGSEVQLQESGPGLVKPSQSLSLTCSVTGYSITSGYYWNWIRQFPGNKLEWMGYITYDGSNNYNPSLKNRISITRDTSKNQFFLKLNSVTTEDTATYYCADFDYWGQGTTLTVSSASTKGPSVFPLAPSSKSTSGGTAALGCLVKDYFPEPVTVSWNSGALTSGVHTFPAVLQSSGLYSLSSVVTVPSSSLGTQTYICNVNHKPSNTKVDKKVEPKSCDKTHTCPPCPAPEAAGGPSVFLFPPKPKDTLMISRTPEVTCVVVDVSHEDPEVKFNWYVDGVEVHNAKTKPREEQYNSTYRVVSVLTVLHQDWLNGKEYKCKVSNKALGAPIEKTISKAKGQPREPQVCTLPPSRDELTKNQVSLSCAVKGFYPSDIAVEWESNGQPENNYKTTPPVLDSDGSFFLVSKLTVDKSRWQQGNVFSCSVMHEALHNHYTQKSLSLSPGK chain 4: EVQLVESGGGLVQPGGSLRLSCAASGYSFTGYTMNWVRQAPGKGLEWVALINPYKGVSTYNQKFKDRFTISVDKSKNTAYLQMNSLRAEDTAVYYCARSGYYGDSDWYFDVWGQGTLVTVSSASVAAPSVFIFPPSDEQLKSGTASVVCLLNNFYPREAKVQWKVDNALQSGNSQESVTEQDSKDSTYSLSSTLTLSKADYEKHKVYACEVTHQGLSSPVTKSFNRGEC |  |  |  | 10 pM | 12.4 pM | 0.0092 nM | 0.0331 nM
4 | 2+1 IgG Crossfab; CL/CH1 exchange (LC007/anti-CD3), anti-MCSP/anti-huCD3 (bispecific antibody) chain 1: DIVLTQSPSSLSASLGDRVTISCSASQGIRNYLNWYQQRPDGTVKLLIYYTSSLHSGVPSRFSGSGSGTDYSLTISNLEPEDIATYYCQQYSKLPWTFGGGTKLEIKRTVAAPSVFIFPPSDEQLKSGTASVVCLLNNFYPREAKVQWKVDNALQSGNSQESVTEQDSKDSTYSLSSTLTLSKADYEKHKVYACEVTHQGLSSPVTKSFNRGEC chain 2: EVQLQESGPGLVKPSQSLSLTCSVTGYSITSGYYWNWIRQFPGNKLEWMGYITYDGSNNYNPSLKNRISITRDTSKNQFFLKLNSVTTEDTATYYCADFDYWGQGTTLTVSSASTKGPSVFPLAPSSKSTSGGTAALGCLVKDYFPEPVTVSWNSGALTSGVHTFPAVLQSSGLYSLSSVVTVPSSSLGTQTYICNVNHKPSNTKVDKKVEPKSCDKTHTCPPCPAPEAAGGPSVFLFPPKPKDTLMISRTPEVTCVVVDVSHEDPEVKFNWYVDGVEVHNAKTKPREEQYNSTYRVVSVLTVLHQDWLNGKEYKCKVSNKALGAPIEKTISKAKGQPREPQVCTLPPSRDELTKNQVSLSCAVKGFYPSDIAVEWESNGQPENNYKTTPPVLDSDGSFFLVSKLTVDKSRWQQGNVFSCSVMHEALHNHYTQKSLSLSPGK chain 3: QAVVTQESALTTSPGETVTLTCRSSTGAVTTSNYANWVQEKPDHLFTGLIGGTNKRAPGVPARFSGSLIGDKAALTITGAQTEDEAIYFCALWYSNLWVFGGGTKLTVLSSASTKGPSVFPLAPSSKSTSGGTAALGCLVKDYFPEPVTVSWNSGALTSGVHTFPAVLQSSGLYSLSSVVTVPSSSLGTQTYICNVNHKPSNTKVDKKVEPKSC chain 4: not shown |  |  |  | 11 pM | 11.3 pM |  | 
5 | 2+1 IgG Crossfab, inverted; CL/CH1 exchange (LC007/anti-CD3), anti-MCSP/anti-huCD3 (bispecific antibody) chain 1: DIVLTQSPSSLSASLGDRVTISCSASQGIRNYLNWYQQRPDGTVKLLIYYTSSLHSGVPSRFSGSGSGTDYSLTISNLEPEDIATYYCQQYSKLPWTFGGGTKLEIKRTVAAPSVFIFPPSDEQLKSGTASVVCLLNNFYPREAKVQWKVDNALQSGNSQESVTEQDSKDSTYSLSSTLTLSKADYEKHKVYACEVTHQGLSSPVTKSFNRGEC chain 2: EVQLQESGPGLVKPSQSLSLTCSVTGYSITSGYYWNWIRQFPGNKLEWMGYITYDGSNNYNPSLKNRISITRDTSKNQFFLKLNSVTTEDTATYYCADFDYWGQGTTLTVSSASTKGPSVFPLAPSSKSTSGGTAALGCLVKDYFPEPVTVSWNSGALTSGVHTFPAVLQSSGLYSLSSVVTVPSSSLGTQTYICNVNHKPSNTKVDKKVEPKSCDKTHTCPPCPAPEAAGGPSVFLFPPKPKDTLMISRTPEVTCVVVDVSHEDPEVKFNWYVDGVEVHNAKTKPREEQYNSTYRVVSVLTVLHQDWLNGKEYKCKVSNKALGAPIEKTISKAKGQPREPQVCTLPPSRDELTKNQVSLSCAVKGFYPSDIAVEWESNGQPENNYKTTPPVLDSDGSFFLVSKLTVDKSRWQQGNVFSCSVMHEALHNHYTQKSLSLSPGK chain 3: QAVVTQESALTTSPGETVTLTCRSSTGAVTTSNYANWVQEKPDHLFTGLIGGTNKRAPGVPARFSGSLIGDKAALTITGAQTEDEAIYFCALWYSNLWVFGGGTKLTVLSSASTKGPSVFPLAPSSKSTSGGTAALGCLVKDYFPEPVTVSWNSGALTSGVHTFPAVLQSSGLYSLSSVVTVPSSSLGTQTYICNVNHKPSNTKVDKKVEPKSC chain 4: not shown |  |  |  | 3 pM | 7.1 pM |  | 

Reference: patent US20180086849A1 (Hoffmann-La Roche, published 2018)
